{"source": "paper PMC4407828", "about": "(Nature communications, 2015)", "target": "GST-Tip60 (UniProt Q92993 1-513)", "sequence (Q92993 whole entry)": "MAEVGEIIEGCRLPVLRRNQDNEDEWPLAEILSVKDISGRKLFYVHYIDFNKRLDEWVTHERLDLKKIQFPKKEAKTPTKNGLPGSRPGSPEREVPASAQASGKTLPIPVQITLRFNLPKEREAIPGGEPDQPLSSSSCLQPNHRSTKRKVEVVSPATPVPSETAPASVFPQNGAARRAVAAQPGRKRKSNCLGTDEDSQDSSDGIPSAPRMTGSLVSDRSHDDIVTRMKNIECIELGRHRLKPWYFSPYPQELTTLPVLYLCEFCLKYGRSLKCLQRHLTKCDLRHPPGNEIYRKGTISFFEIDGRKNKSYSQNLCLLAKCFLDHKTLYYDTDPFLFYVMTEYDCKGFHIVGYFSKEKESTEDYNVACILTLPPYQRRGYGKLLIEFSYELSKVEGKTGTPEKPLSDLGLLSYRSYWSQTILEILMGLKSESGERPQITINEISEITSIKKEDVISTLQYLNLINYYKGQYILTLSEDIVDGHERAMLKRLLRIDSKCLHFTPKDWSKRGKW", "test": "pull-down"}
{"binder": "His-ATF3 (natural protein, UniProt P18847 1-181, looked up) MMLQHPGQVSASEVSASAIVPCLSPPGSLVFEDFANLTPFVKEELRFAIQNKHLCHRMSSALESVTVSDRPLGVSITKAEVAPEEDERKKRRRERNKIAAAKCRNKKKEKTECLQKESEKLESVNAELKAQIEELKNEKQHLIYMLNLHRPTCIVRAQNGRTPEDERNLFIQQIKEGTLQS", "values": [{"measurement": "binding result", "value": "binds"}]}
